As usually defined, the Kd is the free concentration of one partner at which half of the binding sites on the other are occupied at equilibrium, for simple one-to-one binding. Lower therefore signals a tighter complex.

The target of the assay is cis GFP: loop:s11 (light-activated truncated GFP with the 11th β-strand removed, chromophore in the cis configuration). Nature of the assay: absorbance spectroscopy.

“s11, synthetic peptide corresponding to strand 11 of GFP”: the Kd was less than 1 pM.

(Values after PMC3068246.)
